Reference: PMC13245405, “Stable inheritance of the Streptomyces linear plasmid SCP1 by dual ParABS partition systems” (Nucleic Acids Research, 2026)

Assays:
ParB1 [1] = molecular target: T1, ParB1 (Streptomyces coelicolor, UniProt Q9AD11, S110A); experiment: CTP binding test in supplement; settings: 1 mM CTP with parS1 if DSF as in methods
T1 construct: ParB1-His6, C-terminal His6 kept, pET21b, codon-optimized synthetic gene, E. coli Rosetta (BL21 DE3) pLysS; dimer

ParB2 [2] = molecular target: T2, ParB2 (Streptomyces coelicolor, UniProt Q9ACT0, R57A); experiment: CTP binding test in supplement; settings: 1 mM CTP with parS2 if DSF as in methods
T2 construct: ParB2-His6, C-terminal His6 kept, pET21b, codon-optimized synthetic gene, E. coli Rosetta (BL21 DE3) pLysS; dimer
T2 sequence (Q9ACT0 entry or part of it R57A): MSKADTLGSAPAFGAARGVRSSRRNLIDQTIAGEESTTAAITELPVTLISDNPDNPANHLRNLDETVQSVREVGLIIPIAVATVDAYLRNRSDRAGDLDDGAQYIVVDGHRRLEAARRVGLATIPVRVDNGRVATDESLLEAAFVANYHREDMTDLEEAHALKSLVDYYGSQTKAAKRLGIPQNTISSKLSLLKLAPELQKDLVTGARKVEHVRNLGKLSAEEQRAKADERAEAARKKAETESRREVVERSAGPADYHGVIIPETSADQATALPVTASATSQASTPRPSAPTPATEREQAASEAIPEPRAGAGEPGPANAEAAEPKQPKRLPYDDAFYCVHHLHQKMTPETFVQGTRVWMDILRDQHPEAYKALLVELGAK

ParB1 [3] = molecular target: T3, ParB1 (Streptomyces coelicolor, UniProt Q9AD11, S109A); experiment: CTP binding test in supplement; settings: 1 mM CTP with parS1 if DSF as in methods
T3 construct: ParB1-His6, C-terminal His6 kept, pET21b, codon-optimized synthetic gene, E. coli Rosetta (BL21 DE3) pLysS; dimer
T3 sequence (Q9AD11 entry or part of it S109A): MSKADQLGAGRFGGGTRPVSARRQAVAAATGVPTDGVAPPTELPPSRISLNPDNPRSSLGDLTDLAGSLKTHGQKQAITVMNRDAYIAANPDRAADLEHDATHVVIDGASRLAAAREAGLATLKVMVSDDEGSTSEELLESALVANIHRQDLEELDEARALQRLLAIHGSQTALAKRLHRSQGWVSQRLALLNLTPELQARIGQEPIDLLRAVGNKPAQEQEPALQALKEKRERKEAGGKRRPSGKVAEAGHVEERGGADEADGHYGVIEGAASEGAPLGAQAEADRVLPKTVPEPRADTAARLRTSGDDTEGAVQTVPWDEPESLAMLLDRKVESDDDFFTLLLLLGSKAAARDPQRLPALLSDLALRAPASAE

ParB1 [4] = molecular target: T4, ParB1 (Streptomyces coelicolor, UniProt Q9AD11); experiment: isothermal titration calorimetry; format: binding
T4 construct: ParB1-His6, C-terminal His6 kept, pET21b, codon-optimized synthetic gene, E. coli Rosetta (BL21 DE3) pLysS; dimer

ParB2 [5] = molecular target: T5, ParB2 (Streptomyces coelicolor, UniProt Q9ACT0, N55A); experiment: CTP binding test in supplement; settings: 1 mM CTP with parS2 if DSF as in methods
T5 construct: ParB2-His6, C-terminal His6 kept, pET21b, codon-optimized synthetic gene, E. coli Rosetta (BL21 DE3) pLysS; dimer
T5 sequence (Q9ACT0 entry or part of it N55A): as the sequence (Q9ACT0 entry or part of it R57A) above, with N55A, A57R counted along it

ParB1 [6] = molecular target: T6, ParB1 (Streptomyces coelicolor, UniProt Q9AD11, N54A); experiment: CTP binding test in supplement; settings: 1 mM CTP with parS1 if DSF as in methods
T6 construct: ParB1-His6, C-terminal His6 kept, pET21b, codon-optimized synthetic gene, E. coli Rosetta (BL21 DE3) pLysS; dimer
T6 sequence (Q9AD11 entry or part of it N54A): as the sequence (Q9AD11 entry or part of it S109A) above, with N54A, A109S counted along it

ParB2 [7] = molecular target: T7, ParB2 (Streptomyces coelicolor, UniProt Q9ACT0); experiment: differential scanning fluorimetry (Tycho); format: binding; settings: 1 mM CTP, 4 µM ParB2 dimer, with 2 µM parS2 DNA; 100 mM Tris-HCl, 250 mM NaCl, 1 mM MgCl2, 5% glycerol, pH 8.0
T7 construct: ParB2-His6, C-terminal His6 kept, pET21b, codon-optimized synthetic gene, E. coli Rosetta (BL21 DE3) pLysS; dimer

ParB2 [8] = molecular target: T7, ParB2; experiment: isothermal titration calorimetry; format: binding
[9] = molecular target: T8, ParB1-His6 WT (Streptomyces coelicolor A3(2), plasmid SCP1) (UniProt Q9AD11); experiment: BLI; settings: 1 mM CTP; BLI: 100 mM Tris-HCl pH 8, 100 mM NaCl, 1 mM MgCl2, 0.005% Tween 20, 25 C; ParB 0.0625-2 uM (50 bp) or 1 uM (190 bp)
T8 sequence: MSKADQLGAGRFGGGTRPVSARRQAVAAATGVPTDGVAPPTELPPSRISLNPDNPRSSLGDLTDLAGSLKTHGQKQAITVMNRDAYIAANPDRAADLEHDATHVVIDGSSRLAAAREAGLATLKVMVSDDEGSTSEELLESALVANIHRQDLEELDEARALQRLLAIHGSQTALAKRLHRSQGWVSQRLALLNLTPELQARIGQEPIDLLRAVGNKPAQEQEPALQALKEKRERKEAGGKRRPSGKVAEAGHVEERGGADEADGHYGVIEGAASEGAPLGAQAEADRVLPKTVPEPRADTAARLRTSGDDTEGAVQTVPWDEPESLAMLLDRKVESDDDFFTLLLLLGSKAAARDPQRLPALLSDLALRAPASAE

[10] = molecular target: T9, ParB2-His6 WT (Streptomyces coelicolor A3(2), plasmid SCP1) (UniProt Q9ACT0); experiment: BLI; settings: 1 mM CTP; BLI: 100 mM Tris-HCl pH 8, 100 mM NaCl, 1 mM MgCl2, 0.005% Tween 20, 25 C; ParB 0.0625-2 uM (50 bp) or 1 uM (190 bp)
T9 sequence: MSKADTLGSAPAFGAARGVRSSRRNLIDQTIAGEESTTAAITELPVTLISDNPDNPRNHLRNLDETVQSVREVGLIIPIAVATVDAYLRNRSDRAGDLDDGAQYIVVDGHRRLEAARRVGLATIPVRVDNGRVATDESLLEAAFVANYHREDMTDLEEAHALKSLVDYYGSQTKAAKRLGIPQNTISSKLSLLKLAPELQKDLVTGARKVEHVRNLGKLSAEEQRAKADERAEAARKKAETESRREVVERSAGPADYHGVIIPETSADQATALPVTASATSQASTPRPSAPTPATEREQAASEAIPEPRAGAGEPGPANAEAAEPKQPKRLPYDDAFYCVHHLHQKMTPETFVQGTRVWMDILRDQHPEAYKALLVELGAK

ParB2-His6 WT = molecular target: T10, ParB2-His6 WT (Streptomyces coelicolor A3(2), plasmid …, UniProt Q9ACT0 1-381); experiment: BLI; no CTP; BLI: 100 mM Tris-HCl pH 8, 100 mM NaCl, 1 mM MgCl2, 0.005% Tween 20, 25 C; ParB 0.0625-2 uM (50 bp) or 1 uM (190 bp); settings: protein: recombinant; tags: C-terminal His6; chain copies: 2; label: 5' biotin on strand 1; blunt
T10 sequence: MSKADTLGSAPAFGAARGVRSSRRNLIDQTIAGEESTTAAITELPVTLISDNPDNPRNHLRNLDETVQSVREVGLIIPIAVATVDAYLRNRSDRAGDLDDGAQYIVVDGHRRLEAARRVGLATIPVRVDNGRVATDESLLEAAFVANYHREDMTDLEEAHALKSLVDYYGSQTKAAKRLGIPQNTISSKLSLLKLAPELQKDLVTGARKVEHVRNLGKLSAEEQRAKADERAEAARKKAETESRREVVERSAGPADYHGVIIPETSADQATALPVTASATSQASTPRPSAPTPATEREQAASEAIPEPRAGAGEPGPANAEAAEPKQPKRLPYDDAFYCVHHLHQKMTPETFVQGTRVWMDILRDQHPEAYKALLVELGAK

His6-ScParB WT = molecular target: T11, His6-ScParB WT (Streptomyces coelicolor, UniProt Q9S6U1 1-328); experiment: as above; settings: protein: recombinant, tags: N-terminal His6, chain copies: 2, label: 5' biotin on strand 1, blunt
T11 sequence: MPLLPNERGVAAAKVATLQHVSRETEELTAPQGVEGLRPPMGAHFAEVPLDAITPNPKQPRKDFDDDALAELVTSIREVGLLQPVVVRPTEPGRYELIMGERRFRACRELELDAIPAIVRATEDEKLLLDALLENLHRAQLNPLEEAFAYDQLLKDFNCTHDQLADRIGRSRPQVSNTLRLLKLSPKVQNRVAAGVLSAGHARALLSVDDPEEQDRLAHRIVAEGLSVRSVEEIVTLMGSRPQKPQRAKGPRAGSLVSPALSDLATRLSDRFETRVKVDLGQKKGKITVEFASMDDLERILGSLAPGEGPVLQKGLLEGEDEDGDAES

ParB1-His6 WT = molecular target: T12, ParB1-His6 WT (Streptomyces coelicolor A3(2), plasmid …, UniProt Q9AD11 1-375); experiment: as above; settings: protein: recombinant, tags: C-terminal His6, chain copies: 2, label: 5' biotin on strand 1, blunt
T12 sequence: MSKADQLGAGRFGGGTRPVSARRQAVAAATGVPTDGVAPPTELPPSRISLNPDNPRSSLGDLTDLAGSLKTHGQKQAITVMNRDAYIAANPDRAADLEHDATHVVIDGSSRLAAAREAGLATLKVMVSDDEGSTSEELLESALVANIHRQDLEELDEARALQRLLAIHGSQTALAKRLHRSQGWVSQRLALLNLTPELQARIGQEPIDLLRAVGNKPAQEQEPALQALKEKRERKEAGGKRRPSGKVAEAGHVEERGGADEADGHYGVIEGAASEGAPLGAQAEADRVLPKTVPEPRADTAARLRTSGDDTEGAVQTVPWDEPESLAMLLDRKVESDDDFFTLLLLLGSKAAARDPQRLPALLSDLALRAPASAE

[11] = printed strands give one G:G mismatch at site centre

T1 sequence (Q9AD11 entry or part of it S110A): as the sequence (Q9AD11 entry or part of it S109A) above, with A109S, S110A counted along it

In the case of `Nc1ccn([C@@H]2O[C@H](COP(=O)(O)OP(=O)(O)OP(=O)(O)O)[C@@H](O)[C@H]2O)c(=O)n1` [CTP], the “CTP binding test in supplement” value (ParB1 [1]) is reported as “ParB1 N54A, S109A, and S110A or ParB2 N55A and R57A still bound CTP”, the “CTP binding test in supplement” value (ParB2 [2]) is reported as “ParB1 N54A, S109A, and S110A or ParB2 N55A and R57A still bound CTP” and the “CTP binding test in supplement” value (ParB1 [3]) is reported as “ParB1 N54A, S109A, and S110A or ParB2 N55A and R57A still bound CTP”. For the same molecule, the Kd (ParB1 [4]) was 31.6 ± 17.8 µM, the “CTP binding test in supplement” value (ParB2 [5]) was “ParB1 N54A, S109A, and S110A or ParB2 N55A and R57A still bound CTP” and the “CTP binding test in supplement” value (ParB1 [6]) was “ParB1 N54A, S109A, and S110A or ParB2 N55A and R57A still bound CTP”. For the same molecule, the “differential scanning fluorimetry (Tycho)” value (ParB2 [7]) was “only when ParB1 or ParB2 was incubated with both their cognate parS site and CTP”.

With `Nc1ccn([C@@H]2O[C@H](COP(=O)(O)OP(=O)(O)OP(O)(O)=S)[C@@H](O)[C@H]2O)c(=O)n1` [CTPγS] the Kd (ParB2 [8]) was 12.5 ± 5.05 µM and the Kd (ParB1 [4]) was 28.2 ± 5.9 µM.

Work on parS1 190-bp closed loop yielded a binding signal (fold BLI signal vs no CTP) [9] of 4.

Work on parS2 190-bp closed loop yielded a binding signal (fold BLI signal vs no CTP) [10] of 3.

B1: scrambled parS 50 bp (dsDNA)
DNA 1: GGCCCTGGGTATTCCCTCCGGGACTCGAAGGACGAACGACGCTCGCACAT
DNA 2: ATGTGCGAGCGTCGTTCGTCCTTCGAGTCCCGGAGGGAATACCCAGGGCC
B1: no binding (ParB2-His6 WT); no binding (His6-ScParB WT); no binding (ParB1-His6 WT).

B2: parS2 50 bp (dsDNA)
DNA 1: AGCAGGCCCCGCCGATTATCACGGCGTGATAATCCCGGAGACGTCCGCTG
DNA 2: CAGCGGACGTCTCCGGGATTATCACGCCGTGATAATCGGCGGGGCCTGCT
With B2 the Kd (ParB2-His6 WT) was 0.377 ± 0.055 µM and the binding result (His6-ScParB WT) was “no binding”.

B3: parS1 50 bp (dsDNA)
DNA 1: CTTCGGACGCGGCACCCTCTATTACGGCGTAATGGCCGTCTGCCTCATCC
DNA 2: GGATGAGGCAGACGGCCATTACGGCGTAATAGAGGGTGCCGCGTCCGAAG
B3 was tested, and the binding result (His6-ScParB WT; [11]) was “no binding” and the Kd (ParB1-His6 WT; [11]) was 0.386 ± 0.042 µM.

B4: ScparS 50 bp (dsDNA)
DNA 1: TCGGGGATGGTGTTTCGCGTTTCACGTGAAACAACCCCAGCGTACCGGGC
DNA 2: GCCCGGTACGCTGGGGTTGTTTCACGTGAAACGCGAAACACCATCCCCGA
In the case of B4, the binding result (ParB2-His6 WT) is reported as “no binding”, the Kd (His6-ScParB WT) is reported as 0.331 ± 0.064 µM and the binding result (ParB1-His6 WT) is reported as “no binding”.
